B1: EHEE_rd3_0053 (parent)
chain: TYTFKVDNKDQAKKAAKWAKKLGLSFQIEKHGDTFKITVQ

Variants of: B1
Assay: folding stability dG (cDNA display proteolysis); higher = more stable
Conditions: PBS, room temperature

Folding stability dG [kcal/mol]: each site, then its substitutions
K21: V 1.89 | I 1.99 | S 2.43 | G 2.12 | M 2.4 | E 2.02 | L 2.15 | F 1.98 | Y 2.02 | N 2.17 | Q 2.24 | D 1.89 | W 2.19
K13: L 2.46 | V 2.3 | A 2.31 | P -0.412 | Y 2.32 | T 2.12 | S 2.11
G23: S 1.42 | T 0.657 | D 1.02 | M 1.59 | K 1.85 | Q 1.52 | W 0.761 | I 0.784 | R 1.66 | L 1.24 | C 1.62
F35: A 0.298 | V 1.16 | L 1.49 | T 0.632 | H 0.715 | M 1.31 | R 0.294 | G -0.794
A12: S 1.17 | N -0.078 | Y 1.31 | T 1.06 | L 2.42 | G 1.05 | M 2.25 | D -0.537 | I 1.97 | V 2.33 | W 1.29
V6: M 1.68 | R 0.551 | N -0.311 | L 2.32 | S 1.03 | Q 0.045 | D -0.058 | K 0.315 | I 1.89 | F 2.32
K20: E 2.02 | W 2.14 | P -0.72 | Y 2.13 | Q 2.3 | L 2.28 | N 1.83 | M 2.34
K17: M 2.52 | P -0.379 | G 1.9 | F 2.26 | H 2.21 | D 2.16
K36: R 2.53 | D 1.65 | F 3.18 | G 1 | M 2.94
I37: M 1.51 | W 0.115 | A 0.507
E29: V 2.43 | D 1.93 | F 1.95 | N 1.77 | M 2.05 | G 1.19 | R 2.11 | Y 1.95
Q11: R 1.99 | F 1.85 | P 0.025 | C 3.05 | H 2.1 | V 1.95 | G 1.97 | D 2.39 | E 2.3 | W 1.79 | Y 1.74 | T 1.93
K9: L 2.9 | Q 2.26 | D 1.91 | P 2.31 | T 2.02 | A 2.62 | G 1.9 | H 2.25 | N 1.9
K30: I 2.15 | T 2.04 | Q 2.48 | M 2.16 | W 1.64 | V 2.21 | R 2.5 | G 1.57 | E 2.04 | A 2.21 | N 1.88 | Y 1.92
N8: D 2.02 | I 1.16 | W 1.24 | L 1.43 | P 0.466 | V 0.955 | S 2.56 | K 1.62 | Y 1.27
A19: N -0.253 | Y 2.32 | Q -0.184 | P -0.671 | S 0.85 | F 2.84 | M 2.79 | V 1.47
Q27: M 2.54 | E 2.22 | C 2.84 | I 2.67 | L 2.42 | S 2.61
L22: F 2.08 | N 2.32 | A 2.08 | Q 2.14 | R 2.63 | G 0.897 | Y 2.3 | H 2.6
K5: L 3.2 | A 2.54 | W 3.77 | Y 3.89 | G 1.89 | Q 2.9 | V 3.31 | E 2.93
I28: G -0.457 | F 1.47 | H 0.125 | T 0.849 | Y 1.33 | W 1.53 | A 1.42 | E 0.501
D33: Q 2.16 | P 2.12 | Y 1.8 | T 2.37 | H 2.1 | F 2 | V 1.95 | E 2.38 | M 2.1
Q40: E 2.19 | T 2.62 | K 2.45 | Y 3 | I 2.49 | W 3.28 | R 2.59
L24: N 0.22 | V 1.4 | Y 2.33 | R 1.15 | F 2.2 | G 0.159 | D -0.587
V39: D -0.839 | N -0.981 | W 1.56 | C 1.68 | L 2.23 | M 1.86 | Q -0.762 | Y 1.68
K14: F 2.14 | R 2.62 | N 2 | S 2.04 | H 2.06 | Y 2.17
W18: L 1.77 | G 0.349 | F 1.56 | K 1.45 | N 0.859 | A 1.21 | V 1.36 | T 1.1 | R 1.5
T38: G 0.192 | W 1.76 | R 1.72 | Y 1.77 | Q 1.57 | F 1.71 | K 1.65 | D 0.562
F4: K 0.404 | Q 0.162 | N -0.163 | G 0.271 | D -0.075
T3: D 1.34 | P 0.945 | H 2.1 | E 2.15 | N 1.43 | C 2.98 | W 2.67 | Y 2.27 | A 1.79
D10: P 1.89 | A 2.83 | H 2.7 | E 2.73 | K 2.74 | V 2.52 | N 2.6 | T 2.73 | R 2.8 | Y 3.04
H31: F 2.55 | C 3.09 | Q 2.65 | K 2.14 | V 2.87 | P 0.239 | S 2.45 | A 2.41 | T 2.66 | L 2.59 | I 2.89 | M 2.68 | Y 2.45 | N 2.42
F26: S 1.03 | Q -0.496 | L 2.13 | V 2.54 | C 2.68
A15: Q 0.637 | Y 3.04 | F 3.33 | C 3.07 | E 0.415 | K 1.25 | N 0.377 | V 3.15 | D -0.785
D7: H 2.58 | E 2.37 | V 2.33 | W 2.66 | N 2.62 | Q 2.61
G32: C 1.78 | I 1.21 | N 1.96 | W 1.31 | V 1.19 | R 1.58 | T 0.996 | L 1.7 | E 2.03 | P 0.72 | D 1.85
S25: Y 2.18 | L 2.39 | W 2.38 | K 2.46 | A 2.36 | I 2.43 | V 2.42 | H 2.29
A16: G 1.84 | K 2.41 | L 2.33 | T 1.87 | Q 2.16 | F 2.28
T34: F 2.79 | S 2.61 | N 2.28 | D 1.89 | P -0.409 | H 2.92 | Y 2.92 | G 3.12 | A 2.64
Y2: N 0.999 | V 2.01 | L 2.25 | P 0.617 | W 2.7 | M 2.08 | Q 1.17 | A 1.23 | K 1.59 | S 1.18 | G 0.704 | T 1.42
T1: A 2.38 | F 2.42 | K 2.46 | S 2.62 | V 2.43 | Y 2.64

From the MegaScale stability set (Tsuboyama et al. 2023)
